{"source": "paper PMC9282010", "about": "(Molecular Biology of the Cell, 2022)", "binders": {"B1": {"name": "Vti1, the vacuolar Qb-SNARE (wild type, membrane-anchored) (natural protein)", "chain": "MSSLLISYESDFKTTLEQAKASLAEAPSQPLSQRNTTLKHVEQQQDELFDLLDQMDVEVNNSIGDASERATYKAKLREWKKTIQSDIKRPLQSLVDSGDRDRLFGDLNASNIDDDQRQQLLSNHAILQKSGDRLKDASRIANETEGIGSQIMMDLRSQRETLENARQTLFQADSYVDKSIKTLKTMTRRLVANKFISYAIIAVLILLILLVLFSKFK"}, "B2": {"name": "Qa(JxR): Vam3 with the juxtamembrane region of Nyv1 and its own TM (other)", "chain": "MSFFDIEAQSSKGNSQQEPQFSTNQKTKELSNLIETFAEQSRVLEKECTKIGSKRDSKELRYKIETELIPNCTSVRDKIESNILIHQNGKLSADFKNLKTKYQSLQQSYNQRKSLFPLKTPISPGTSKERKDIHPRTEAVRQDPESSYISIKVNEQSPLLHNEGQHQLQLQEEQEQQQQGLSQEELDFQTIIHQERSQQIGRIHTAVQEVNAIFHQLGSLVKEQGEQVTTIDENISHLHDNMQNANKQLTRADEIMWWQKVKKVTLIIIIVVCMVVLLAVLS"}}, "test_in_all_cases": "co-IP", "key": {"[1]": {"target": "B2"}, "[2]": {"target": "T1, Vam3, the vacuolar Qa-SNARE (wild type) (yeast, UniProt Q12241 1-283)", "T1 sequence": "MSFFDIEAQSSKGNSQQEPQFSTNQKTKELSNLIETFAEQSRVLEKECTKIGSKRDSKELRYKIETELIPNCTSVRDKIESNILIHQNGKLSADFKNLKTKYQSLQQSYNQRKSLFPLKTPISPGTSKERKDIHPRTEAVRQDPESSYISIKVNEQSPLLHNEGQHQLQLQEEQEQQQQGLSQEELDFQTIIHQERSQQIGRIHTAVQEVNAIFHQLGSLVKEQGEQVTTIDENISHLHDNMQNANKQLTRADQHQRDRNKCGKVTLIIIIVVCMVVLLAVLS"}, "[3]": {"target": "B1"}}}
{"binder": "R(JxQa): Nyv1 with the juxtamembrane region of Vam3 and its own TM (other) MKRFNVSYVEVIKNGETISSCFQPFQKNENYGTITSANEQITPVIFHNLIMDMVLPKVVPIKGNKVTKMSMNLIDGFDCFYSTDDHDPKTVYVCFTLVDMPKILPIRILSGLQEYESNATNELLSSHVGQILDSFHEELVEYRNQTLNSSGNGQSSNGNGQNTISDIGDATEDQIKDVIQIMNDNIDKFLERQERVSLLVDKTSQLNSSSNKFRRKAVNIKQHQRDRNKCGNITLLTFTIILFVSAAFMFFYLW", "values": [{"measurement": "binding result", "setting": "[1]", "result": "binds"}]}
{"binder": "B1", "values": [{"measurement": "binding result", "setting": "[2]", "result": "binds"}]}
{"binder": "B2", "values": [{"measurement": "binding result", "setting": "[3]", "result": "binds"}]}
